Experimental data published in patent publication US20260345804 (published 2026).
Numbering of substitutions follows the chain as printed. Like-named read-outs stand apart in the source and are kept apart here.

Legend:
Experiment in all cases: SPR, 25C
[1] = target: huPD1-ECD_Fc-knob/hole (P1AD9704) (human)
[2] = target: huPD1-ECD_Fc-knob/hole (P1AD9704) (human); remark: listed apart in the source
[3] = target: huPD1-ECD_Fc-knob/hole (P1AD9704) (human); remark: listed apart in the source
[4] = target: T1, human IL2v G4S avi his (P1AG0879) (human)
T1 chain: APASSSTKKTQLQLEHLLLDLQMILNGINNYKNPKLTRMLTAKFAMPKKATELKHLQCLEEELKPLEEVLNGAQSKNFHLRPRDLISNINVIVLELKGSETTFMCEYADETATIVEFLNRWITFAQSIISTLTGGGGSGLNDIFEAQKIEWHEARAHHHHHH

B1: P1AG9606 PD1 IgG-IL2v aIL2 MT204 scFv-PQARK (antibody)
chain 1: EVQLLESGGGLVQPGGSLRLSCAASGFSFSSYTMSWVRQAPGKGLEWVATISGGGRDIYYPDSVKGRFTISRDNSKNTLYLQMNSLRAEDTAVYYCVLLTGRVYFALDSWGQGTLVTVSSASTKGPSVFPLAPSSKSTSGGTAALGCLVKDYFPEPVTVSWNSGALTSGVHTFPAVLQSSGLYSLSSVVTVPSSSLGTQTYICNVNHKPSNTKVDKKVEPKSCDKTHTCPPCPAPEAAGGPSVFLFPPKPKDTLMISRTPEVTCVVVDVSHEDPEVKFNWYVDGVEVHNAKTKPREEQYNSTYRVVSVLTVLHQDWLNGKEYKCKVSNKALGAPIEKTISKAKGQPREPQVCTLPPSRDELTKNQVSLSCAVKGFYPSDIAVEWESNGQPENNYKTTPPVLDSDGSFFLVSKLTVDKSRWQQGNVFSCSVMHEALHNHYTQKSLSLSPG
chain 2: DIVMTQSPDSLAVSLGERATINCKASESVDTSDNSFIHWYQQKPGQSPKLLIYRSSTLESGVPDRFSGSGSGTDFTLTISSLQAEDVAVYYCQQNYDVPWTFGQGTKVEIKRTVAAPSVFIFPPSDEQLKSGTASVVCLLNNFYPREAKVQWKVDNALQSGNSQESVTEQDSKDSTYSLSSTLTLSKADYEKHKVYACEVTHQGLSSPVTKSFNRGEC
modifications: PD1-binding arm; immunoconjugate, knob chain SEQ59 carries masked IL2v
[1]
  Kd: 0.19 nM

B2: P1AA6888 one-shot humanized PD1-0103 (antibody)
chain 1: not shown
chain 2: B1 chain 2
[2]
  Kd: 0.2 nM
[3]
  Kd: 0.3 nM

B3: P1AI0357 PD1-1030-VH_I58T (antibody, V domains shown)
VH: EVQLLESGGGLVQPGGSLRLSCAASGFSFSSYTMSWVRQAPGKGLEWVATISGGGRDTYYPDSVKGRFTISRDNSKNTLYLQMNSLRAEDTAVYYCVLLTGRVYFALDSWGQGTLVTVSS
VL: DIVMTQSPDSLAVSLGERATINCKASESVDTSDNSFIHWYQQKPGQSPKLLIYRSSTLESGVPDRFSGSGSGTDFTLTISSLQAEDVAVYYCQQNYDVPWTFGQGTKVEIKR
[3]
  Kd: 0.2 nM

B4: P1AI0359 PD1-1030-VH_P61A (antibody, V domains shown)
VH: B3 VH with T58I, P61A
VL: B3 VL
[3]
  Kd: 0.2 nM

B5: P1AI1649 PD1-376_VL2_VH4_I58T (antibody, V domains shown)
VH: B3 VH with A49S, T50A
VL: B3 VL with S55A
[1]
  Kd: 0.111 nM

B6: P1AH4157 PD1-376_VL2_VH4 (antibody, V domains shown)
VH: B3 VH with A49S, T50A, T58I
VL: B3 VL with S55A
[1]
  Kd: 0.126 nM
[2]
  Kd: 0.2 nM

B7: P1AH4159 PD1-376_VL2_7_VH4 (antibody, V domains shown)
VH: B3 VH with A49S, T50A, T58I
VL: B3 VL with S55A, L58Q
[2]
  Kd: 0.2 nM

B8: P1AI0356 PD1-1030-VH_I58L_D62E (antibody, V domains shown)
VH: B3 VH with T58L, D62E
VL: B3 VL
[3]
  Kd: 0.2 nM

B9: P1AI0358 PD1-1030-VH_I58T_P61A (antibody, V domains shown)
VH: B3 VH with P61A
VL: B3 VL
[3]
  Kd: 0.3 nM

B10: P1AI1650 PD1-376_VL2_VH4_I58T_P61A (antibody, V domains shown)
VH: B3 VH with A49S, T50A, P61A
VL: B3 VL with S55A
[1]
  Kd: 0.127 nM

B11: P1AI0360 PD1-1030-VH_Y60F_D62E (antibody, V domains shown)
VH: B3 VH with T58I, Y60F, D62E
VL: B3 VL
[3]
  Kd: 0.3 nM

B12: P1AH4160 PD1-376_VL7_VH1_2_4 (antibody, V domains shown)
VH: B3 VH with L5V, S28T, A49S, T50A, T58I
VL: B3 VL with S55E, L58Q
[2]
  Kd: 1.2 nM

B13: P1AI1648 PD1-376_VL2_VH4_I58L_D62E (antibody, V domains shown)
VH: B3 VH with A49S, T50A, T58L, D62E
VL: B3 VL with S55A
[1]
  Kd: 0.144 nM

B14: P1AI1652 PD1-376_VL2_VH4_Y60F_D62E (antibody, V domains shown)
VH: B3 VH with A49S, T50A, T58I, Y60F, D62E
VL: B3 VL with S55A
[1]
  Kd: 0.162 nM

B15: P1AI1651 PD1-376_VL2_VH4_P61A (antibody, V domains shown)
VH: B3 VH with A49S, T50A, T58I, P61A
VL: B3 VL with S55A
[1]
  Kd: 0.114 nM

B16: P1AH4161 PD1-376_VL2_VH1_2_3_4 (antibody, V domains shown)
VH: B3 VH with L5V, S28T, T33A, A49S, T50A, T58I
VL: B3 VL with S55A
[2]
  Kd: 0.4 nM

B17: P1AH4158 PD1-376_VL7_VH4 (antibody, V domains shown)
VH: B3 VH with A49S, T50A, T58I
VL: B3 VL with S55E, L58Q
[2]
  Kd: 1.5 nM

B18: P1AF7506 OA MT204 IgG PG LALA (antibody, V domains shown)
VH: EVQLVESGGGLVQPGGSLRLSCAASGFTFSSYTLAWVRQAPGKGLEWVAAIDSSSYTYSPDTVRGRFTISRDNAKNSLYLQMNSLRAEDTAVYYCARDSNWDALDYWGQGTTVTVSS
VL: DIQMTQSPSSLSASVGDRVTITCKASQNVGTNVGWYQQKPGKAPKALIYSASFRYSGVPSRFSGSGSGTDFTLTISSLQPEDFATYYCQQYYTYPYTFGGGTKVEIKR
[4]
  Kd: 0.27 nM

B19: P1AH2052 MT204_VL1b-combo VH2 & VH6 IgG PG LALA (antibody, V domains shown)
VH: B18 VH with R64K, A74S, S77T
VL: B18 VL with K24R, N28G, A46L, R54L
[4]
  Kd: 0.995 nM

B20: P1AH2050 MT204_VL1-combo VH2 & VH6 IgG PG LALA (antibody, V domains shown)
VH: B18 VH with R64K, A74S, S77T
VL: B18 VL with K24R, N28G
[4]
  Kd: 0.427 nM

B21: P1AH2051 MT204_VL1a-combo VH2 & VH6 IgG PG LALA (antibody, V domains shown)
VH: B18 VH with R64K, A74S, S77T
VL: B18 VL with K24R, N28G, R54L
[4]
  Kd: 0.101 nM
